The data set in a line: label from the status in PepcDB records.

For the sequence “MNHKQYLALAVPLIISTITTPLLGAVDTAVAGQLSSPAYIGGVAVGTMIFNTMYWLLGFLRVSTSGFAAQSLGSQNRSESVLALARPVFIALFAGLMFIILQKPLEYAALTLIQPDRHTAEFASQYFSLRIWGAPFALISYCILGWLMGMSLIKVTLLLQISMNVLNIVLDIVFVYVFHMEVYGIALATLISDVTGCLIGCWLVKTNAAMPFKLPSVKLLFDPKPFKKMMVVNRDLLIRTLCLLTVFNLFTAKGAGFGAEILAANAILIQIHYLMAYVFDGFANASSIFAGKAVGRMDRDLYSRTLSLSIQWSLISAALLSVGYFLLRNAILPLFTPLESVLEAAKTYDVWIALFPLAASFGLVFYGIFTGATEIGPVRNSMFLAVLVFLAAFFTAVPAFGNHGLWLAFLLFSLGRSVFLCMAVPGLTTRLFGERSAAREAGQRPKSLKHPG”, the protein production result is “failed”.

For “MNHLKKLVSILICTLLIVSLLPFSVWADSQERDGTDVEEITTKEKVTQETTSNETTSEPLKGTTVNKAINAKSFPTGNYSGDFSINSQKDVIESGQTVNYNIYLKITGPNTRYQNAKLVINLPKNGEFNQSLNELKIAGATPSYNKTTRQLVYTYQTLNSGVVDKVILKMTTKNGYTPNGTKLVVTGELSADNLSEKVTEQAETTVNATATTALSNDFTKVENSINNNPSQGDIGIWSFNLNIPKKSTGSLFMEEGKKIVIEYTLADKLDYLGVAGDTPEPTKVEGQKLTWEIAAPTYLEQEKANSLLNKTFQIRTFFQPTIPNFATVENKAVATTNFVTLTDSIVDTSKASVSVSASDPATIPPTIGSVYAPAHRGPVDANWGIATVTGNPDIKVYDTAKLGFSLMLNSAMNDSPWYDFLYYDAYYNIDDNLNLDYFRSGDFYFKPNVNYPGWAQLKKSPKYNLLVKYDGDTDWTTLKEDVELSKMYSRKDLGIPDDKHVSKVWLHFTYAPAGMYAADLSFFTTVKEGYVGEVRNSTQINMYGADSQDYIHYYDDTNPWPEAWKNYAGDRTAQIIPQPTGKNKFVQGSVVFDDTDGNLINIGDNSISVNLESNKASISRLKGPFEAMVLLPSGVKMKNTEQNGFKVTVLNENYQNAGRQLLKVKWDKKTLLPAEKLTAKINVSVAKDTPSNMTVEMFGFLQDTDFNVPEVSGTPTISDTKMEIDSNDINQNGNSEESRITSGNHYILNTSNHLKISKKAKGNRDKEYSGLANATTNSIVSYQLSLENDSDEKIANMVLMDVLPSENDLGITDNSERGSKFNLALTKAVEVPKEWKDKVEVTYSTAKNPKRAGILDKHTIYPIGTEPLVDNTEATQADWLTASEVKDWSNIYSFKIELKEGIEWIPGKSMKIQFDLKTPKKNQIDKTLLKQQTKKEDRAAWNSFAVAVNNSQVIEPAQVGVALDDSVAPVTVQYVDQNHKQIASPETLTGAYGEKFTAKQKKINNYSLVKIPANVSGTFNEKAQTITFIYQKVTAGRIIVNYVDKNGEKIADSIVLNGKLNSSYTTSSKKISGYKLYQTPKNATGKFLNTSQTVTYVYERTSNLSISSSNKGTENVKKLAKLPHTGDSTTTNLWVIIGLFMLSGAFVIMKKR”, the protein production entry is on record as “failed”.

“MNHVAVIGGGIIGASWAVVFARRGLEVTIVERDAACLAGLPARLAGMIERSASLLGAGEQPGDVAARIGATDALAAAVGRADYVQEAVSENLALKRTLFAELDALAPAHALLASSTSTYGASQFTEALAGRARCLVAHPMTPPHLSPVVEMAASAWTDPQVLAGAEAFMRSLGQHPVRIRKEIPGFVLNRLQGALLMEMFRVIADDVISPADADALISQGLGLRWATLGPLEGVDLNAPGGIADYLQRYGHIFNDMAVGQGLPAPVDAELISALDGAMRAALPLERLEAKRGWRDRAIAGVRVALHDYTGEKPLEHHHHHH”: the protein production entry was “failed”.

Turning to “MNIEEAKELVDNSKFYGKTSSVIKAEVRDIIDQLNQPKPEVPQCVADWIEECKEEDLTLKGLFSNSDMPAKIFDWIFGSDENCRLMAEAWINGYTVEKEKLYTVDLPNGQPLVRGINTLYFSQNLATENVKLTESEIRKDFEWAWQFAEEVTE”, the protein production entry is “failed”.

For “MNIEQMLAILDPDVVQRLKIAVEIGKWPNGVALTAEQRQICMQAVMIWEHKHLPEEERTGYIDRGTKEEGEECDSHEPEIKPIRFI”, the protein production result was “failed”.

Turning to “MNIPNLLTLFRFFLIPCFIFAFFSRSNDSLINSAIIFFIAGFTDILDGYIARKFNEITKYGTVMDPLADKLMLLTVLCCLTIKGYIPLLILLIMLAKEFSMIIIGVFLYGKNIIIPANIWGKLSTLIFYVAILFFTFSKFLGTYLLYIAILGAVVAYINYFLIFLSKYRQNATK”, the protein production entry is reported as “failed”.

Consider “MNIQQLEYIAALDKFRHFAKAADYCNVSQPTLSTMILKLEEELGAKLFDRSRQPIEPTSIGALVVSQAKQILYDLNSITRIIEEEQ”, for which the protein production entry is given as “failed”.

For “MNIQSELEFKFAHYLINNAVEASFCLGDNWQFLYVNDATCRMTEYSREQLLSMNLQDIDVDFALHDWEEIRQKNNYTFKTRYRSQSGRIFLVEMSLTFLEDQERRFSCVFVREKS”, the protein production entry is “not failed”.

As to “MNIRIAEELDVPALAELYQTTVLAVAPQHYSPEQTQMWASFASDTDNFQKFILNATTFIATDERGILGFAGITEDGHVTATYVRSDLIRQGIGSILMEKILEYAHLHKIRRLYAEASEFSLGLFQKFGFHIYDTEIVNRQGVLFRRYIVERS”, the protein production result is given as “failed”.

Consider “MNISLVFPPFHLQSLYNLPPLGLISLATVLGEAGHRAVIRDLVLALRQGSLGMGKELYGEAARMILRDDPDLVGFSAQCTTFPAVVRIARLLKEQKPDLRIVAGGHNVSFLDVPTLERFPWIDAVVRGEGEVTFRELAASFAVGNDPAEVAGVTWRRGTEIVRNPDRELIADLDTLPLPDYTLVPPLASYRDACGIPRSIAILEVGRGCPHRCVYCSESVMWRRRTRTFSIPRLIREMEELHGRFGAECLVLAYDQFTADRRFVEEFCNRVIDARLNRVPWYCISRLDSLDRPLLDLMREAGCESMCYGIDSGSRRTLAFIGKEIDEGILYQRVRETTEAGMVPTLSFVIGFPEEEREDIDQTLFLALKAGVQGNSAPLVQLPTVLAGTELHRRYTGRLVREVDTYFSLGLEFDHGRRLADDERLIDADPFLFSSFYNLPCAGVPLAELDRIARWFPLILNGYPKSFILLSLALGRPPSNLFREILSRLEEDGWREDDPTAETAFLERFPCHAEGLMAGSASWPHFAEILTYETLALRATHRGPPRADGAGPLKGDPAGECRPVLREEVTVSEFRRNLPAIIADLKSGIFRESYPPEPTLLIFYPSGERLEVMEINRFGKDFLLLCNGLATCEEIAATLYGEYGDAMDSGAFSEECKDALTVFTGMGLVRDGAAPAP”, for which the protein production result is listed as “failed”.

On to “MNIVYLLMLSLILFSIGLYGISTSNVGIKMLISLEIIINSAILAGVSISSFYFSTGVLIFVLFAIAIGVIESAVGIAILTMVYKKYGRITISLLKEIKW”, for which the protein production result is reported as “failed”.

With “MNIYSLFVVAIALSLDAFGVALSIGLDSCVKRKNKLLFAISFGFFQFLCTFIGAYSGFLFNTYITYVPQIIGGMIIAFVGAFMIKEGFDNKEEKLLLNFKMYFVLGISVSIDAAVVGFTMFNKISSNYVILGDSVFIGIVTLILSIIAFIISRYLKRIQLVCKYADYIGGIILVIFGLKMMFF”, the protein production entry is “failed”.

In the case of “MNKAGARASDQETRRFGFVEWFRPGDYERAEVALPDILESGASYLRTHLSWAEYLAPGGQQWFDWLIPRIGGQIDLLPCIHYTPPSLSRTGRSSGPPVNLKSYADFVDHVLTRYGRYISHIELWNEPNNLLDWDWRHDSDFLLFCEMVGGAAYWAKQRGYKPVLGGPCPFDPYWLNLMGTRGVLGVVDAVGFHGFPGTWDSEEATWGGWDMHLGEMRGIIDRYNADAEIWITETGYSTWRNDEIEQARRFTKALKVPADRMYWYSWRDVPPDVPVQEGLWFDPRHYHLGAVSHDNKPKLLARLLTEGGVKRLEEVAALAAPNITSGAAPIIVTGGSGFVGCNLADRLLSDGEDVIILDNLARSGVDQNLSWLKERHGGRVHPVLADVRDLLGIEAAFRDAKAVFHYAAQTAVTTSLVDPLEDFETNARGTLNVLESIRRAGKRAPIIFASTNKVYGALDDLGMIELDDRYLPEDESIRTLGIGEDRPLDFCTPYGCSKGVADQYILDYAKSYGIPAAVLRMSCIYGPRQFGTEDQGWVAHFLIRALGGEPISIYGDGKQVRDILHVDDAVAAYRVLLSNIGQVSGKAFNLGGGPRNAVSVLAVLREIEELAGRPVETSFGPWRAGDQLYFVADTTRLEQETGWQAGIGWRHGLRHLAEWLIAHRFGGRQIRREKRKASA”, the protein production result was “failed”.

For “MNKALKALGVLTTFVMLIVLIGGALVTKTGSGQGCGRQWPLCHGRFFPELNPASIIEWSHRFASGISIILVLSLAFWSWRKITPIFRETTFLAIMSIIFLFLQALLGALAVVFGSNALIMALHFGISLISFASVLILTLLIFEADKSVRTLVKPLQIGKKMQFHMIGILIYSYIVVYTGAYVRHTESSLACPNVPLCSPLNNGLPTQFHEWVQMGHRAAALLLFVWIIVAAVHAITSYKDQKQIFWGWISCLIFITLQALSGIMIVYSELALGFALAHSFFIACLFGVLCYFLLLIARFRYESRQS”, the protein production entry was “failed”.

As for “MNKALWYVVLPALLVTVLAQRFGHLTVNFPLKSVFGGAAPAEAALHRRIALPSGFSLTVYAADLPGARMLRFTRTGDLLVSQPNAGAIVLLEKDADGDGRPDGRRQLLTGLSRPHGLDLRDGWLYVAETYGVVRVRYDAAQRQISGAPEMVVSGIPGGGNHWSRTLKFGPDGGMYVSVGSSCNVCIEDDPLRATLLRFEPDGTKREIYATGLRNTVGFDWRPGSRELYGTDNGRDLLGDDFPPCELNRIEKGGFYGWPYANGNRVPDPDYGRGHEADIRRSLPPVHEFRAHVAPLGMVFLKGGGLPQDYRGAALVALHGSWNRSKKQGYEVVSLHFGADGRIAERPFMTGFNVDEDVIGRPVDVAEGPDGAIYVSDDYAGAIYRVLYRPPVTASHD”, the protein production result is recorded as “failed”.

With “MNKFENFYKVPISYKNRKNEIYKYDNLEYNKMKYGMPEYYRCPYYMHENRNLYNTESCYTPNINVGRNSFYGKTLDPNDKICEENDSVYNILEEDHKEESFKKIECMNKEDDRKKIYNKVEKNDDENIDNKKHNYCEKYEEVYPKDRSSIKIIYNDVDQQIDHNLYDDENEIVCDNEIKKRKKRDRKVFMGKYFFSDIINTIIYPCTNKSLQKYQYGSVENMDYSLYNDIQKGQKIQKVDKIKNKKAPQIIVKF”, the protein production result is reported as “failed”.

As for “MNKFLVSLFLPLVAFANSSEAAANANLFGAFTLIPPLVAIALAFITKDVILSLFTGVLSGTFLLSLSANIFKAQHLTFVNYYNTTVESFSKIISYILGSTSDPVNAGIILQILCIGGLVALITKMGGAKAVALKFAKRAKSAVSAQVNTWFLGLLIFFDDYANLLIVGPIMRPLADKFKISREKFAFIIDSTAAPVAGIAVISTWIGLEVSLIKTAYEHIGISNISAFGIFVETIPYRFYNIFMLFFVVMTAIMRREFGSMYKAEVRARTTGQIAPLPKSGTLDTTELEDQFLAPKEGIKIRAFDAIVPIFTLIILAILGFYFNGLSTLEGEELAKASANPLSFETFRAAFGNADSSVVLFQAALFAAIVAIFIGVRRKIFNLKEAVETWIYGWKTMIFTIVLLLFAWSLSSIVKDLGTSLFITSLLADKLPEFILPATIFAFASAISFAIGTSYGTMGILMPLAVPLAHEIAKINGMDANAMHHYMVINISCVLTGAIFGNHCSPISDNVILSSMSAKCDHMEHVRTQIPYALFICGISLIAGYIPVSLGLSVWFVLPLNFILIALLLRLIGKKVP”, the protein production entry was “failed”.

Take “MNKITSAFIRVLRQSSSSGGTGNLLGRQLSYKSDLSLDKIYPGARLQIYTPPPPPSGSDKFSGFIPMDRLEITYSRSSGPGGQHVNTVNTKVDVRFKVAQADWIPEQTRQKLLKVLANRITKDGYFYIKSDLTRSQQMNLADALEKLRTIIRSQEAVAPAPPSEETLEKLRRRQERAVRERLQLKRGRAQVKADRQGPSGLDL”: the protein production result was “failed”.

Source of the values: a protein production outcome set (Wang et al. 2014).
